Laboratory results published in article PMC6145145.
Positions count from the first letter of the chain named.

Assays:
[1] = target: T1, POT1 WT (human, UniProt Q9NUX5 1-634); experiment: EMSA
T1 sequence: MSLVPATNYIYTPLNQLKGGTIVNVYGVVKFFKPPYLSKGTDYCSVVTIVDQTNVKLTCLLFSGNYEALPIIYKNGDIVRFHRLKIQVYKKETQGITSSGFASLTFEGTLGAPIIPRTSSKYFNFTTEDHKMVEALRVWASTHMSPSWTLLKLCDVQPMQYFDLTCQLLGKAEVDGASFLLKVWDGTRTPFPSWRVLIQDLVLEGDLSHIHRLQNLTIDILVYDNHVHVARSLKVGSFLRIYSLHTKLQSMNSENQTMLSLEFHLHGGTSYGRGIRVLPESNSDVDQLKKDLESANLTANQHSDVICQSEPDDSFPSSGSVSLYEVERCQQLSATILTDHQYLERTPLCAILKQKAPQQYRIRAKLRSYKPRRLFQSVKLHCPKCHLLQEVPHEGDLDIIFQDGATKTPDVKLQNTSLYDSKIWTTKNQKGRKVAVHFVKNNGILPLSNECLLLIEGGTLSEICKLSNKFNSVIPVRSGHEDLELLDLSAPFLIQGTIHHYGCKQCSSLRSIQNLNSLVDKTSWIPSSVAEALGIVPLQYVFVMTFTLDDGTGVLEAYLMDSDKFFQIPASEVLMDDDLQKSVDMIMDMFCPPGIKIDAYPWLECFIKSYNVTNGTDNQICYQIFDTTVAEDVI

[2] = target: T2, POT1-K90E (human, UniProt Q9NUX5 1-634, K90E); experiment: EMSA
T2 sequence: T1 sequence with K90E

Binder: TTAGGGTTAGGGTTAGGG (ssDNA) [telomeric primer (TTAGGG)3]
- binding result [1]: binds
- binding result [2]: binds
